The data set concerns the target PHOX2B WT (HA-tagged) (human, UniProt Q99453 1-314). The experiment in a line: EMSA; self-competition and anti-HA supershift; EMSA as previously described (refs 25, 28) with rabbit reticulocyte lysate proteins; buffer, salt, pH and temperature not given. The note with it: protein: ivt; tags: N-terminal HA; label: radiolabeled. Background: A gel shift assay detects complexes by their altered migration in electrophoresis.

Consider four molecules from PMC4933246, “Alanine Expansions Associated with Congenital Central Hypoventilation Syndrome Impair PHOX2B Homeodomain-mediated Dimerization and Nuclear Import*”.

Sequence of PHOX2B WT (HA-tagged) (Q99453 whole entry): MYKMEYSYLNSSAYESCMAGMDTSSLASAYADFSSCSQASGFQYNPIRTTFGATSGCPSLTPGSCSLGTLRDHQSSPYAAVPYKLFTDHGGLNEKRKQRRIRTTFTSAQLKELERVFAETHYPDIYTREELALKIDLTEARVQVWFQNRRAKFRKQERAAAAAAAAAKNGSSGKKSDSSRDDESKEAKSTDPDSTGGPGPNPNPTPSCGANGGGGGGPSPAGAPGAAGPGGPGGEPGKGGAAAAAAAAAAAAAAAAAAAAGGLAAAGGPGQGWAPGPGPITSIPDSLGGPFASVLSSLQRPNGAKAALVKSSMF

B1: PRS1 (dsDNA)
DNA 1: ATGTGTCATTAGTGCCAATTAGAGG
DNA 2: CCTCTAATTGGCACTAATGACACAT
For the molecule B1, the binding result is given as “binds”.

B2: ATTA 3-4 sites probe (dsDNA)
DNA 1: GGTGGTATTAAATTCTAATTAGAGATGCA
DNA 2: TGCATCTCTAATTAGAATTTAATACCACC
Turning to B2, the binding result was “binds”.

B3: ATTA 2 site probe (dsDNA)
DNA 1: TAGTGTGATTGAATTAAAGGGCA
DNA 2: TGCCCTTTAATTCAATCACACTA
As for B3, the binding result is given as “binds”.

B4: PHOX2A promoter homeodomain binding site probe (dsDNA)
DNA 1: TCAGAGCGAATTGAATTAACTTCTTCACAC
DNA 2: GTGTGAAGAAGTTAATTCAATTCGCTCTGA
Consider B4, for which the binding result is reported as “binds”.
